From article PMC3158298 come the findings set out here.

This assay deals with CC-Aβ_(1-40)E22Δ. The assay can be described thus: split tetra-Cys FlAsH fluorescence.

Consider CC-Aβ_(1-40)E22Δ (peptide), for which the FlAsH fluorescence intensity relative to CC-Aβ (1-40) was 1.5 fold.
